T1: mouse lipoprotein lipase (LPL), recombinant, purified (mouse, UniProt P11152 28-474)
T1 construct: lipoprotein lipase, mouse; expressed in Drosophila S2 cells; also called mouse LPL; purified mouse LPL; source: Drosophila S2 cells, purified to homogeneity by heparin-Sepharose chromatography
T1 sequence (looked up): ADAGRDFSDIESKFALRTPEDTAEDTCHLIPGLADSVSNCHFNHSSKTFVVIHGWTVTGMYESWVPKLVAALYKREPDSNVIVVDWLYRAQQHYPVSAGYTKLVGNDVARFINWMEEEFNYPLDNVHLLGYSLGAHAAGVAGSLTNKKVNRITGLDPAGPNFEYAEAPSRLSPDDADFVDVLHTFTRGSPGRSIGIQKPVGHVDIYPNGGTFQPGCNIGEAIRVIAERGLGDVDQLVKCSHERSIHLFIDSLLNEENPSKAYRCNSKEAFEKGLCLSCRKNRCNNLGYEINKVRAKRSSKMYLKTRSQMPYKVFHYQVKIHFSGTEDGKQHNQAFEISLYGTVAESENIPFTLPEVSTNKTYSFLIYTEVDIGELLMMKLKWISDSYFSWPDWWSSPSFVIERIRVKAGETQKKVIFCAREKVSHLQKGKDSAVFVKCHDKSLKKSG

T2: soluble mouse S-GPIHBP1 (acidic stretch and adjacent tyrosines replaced with an S-protein tag) (mouse, UniProt Q9D1N2 23-198, residues 32 to 48 replaced with the S-protein tag (KETAAAKFERQHMDS))
T2 sequence: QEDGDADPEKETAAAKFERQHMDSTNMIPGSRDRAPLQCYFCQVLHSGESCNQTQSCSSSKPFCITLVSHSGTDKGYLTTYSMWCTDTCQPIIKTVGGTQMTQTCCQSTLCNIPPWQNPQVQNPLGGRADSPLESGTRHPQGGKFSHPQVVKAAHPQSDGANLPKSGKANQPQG

B1: soluble WT mouse GPIHBP1 (residues 23-198) (domain or fragment, UniProt Q9D1N2 23-198, looked up)
chain: QEDGDADPEPENYNYDDDDDEEEEEETNMIPGSRDRAPLQCYFCQVLHSGESCNQTQSCSSSKPFCITLVSHSGTDKGYLTTYSMWCTDTCQPIIKTVGGTQMTQTCCQSTLCNIPPWQNPQVQNPLGGRADSPLESGTRHPQGGKFSHPQVVKAAHPQSDGANLPKSGKANQPQG
modifications: sulfated tyrosines in the acidic domain (Tyr35, Tyr37): one half of the molecules contained 2 sulfated tyrosines, the other half only 1
notes: lacks the carboxyl-terminal signal peptide that triggers the addition of a GPI anchor; Homogeneous and monodisperse preparation after removal of low levels of oligomers by SEC; also called WT-GPIHBP1; purified WT-GPIHBP1
B2: mouse lipoprotein lipase (LPL), recombinant, purified (enzyme)
chain: T1 sequence (looked up)

Experiments:
[1] = target: B2; test: SPR; 150 mM NaCl
[2] = target: B2; test: SPR; 750 mM NaCl
[3] = target: B2; test: SPR; 150 mM NaCl
[4] = target: B2; test: SPR; 750 mM NaCl
[5] = target: T1, mouse lipoprotein lipase (LPL), …; test: SPR; Biacore T200; mouse LPL captured on the chip with immobilised antibody 27A; WT-GPIHBP1 (0.25-4 nM) or S-GPIHBP1 (2-32 nM) injected, single-cycle kinetics, 50 μL/min, 20°C; 10 mM HEPES pH 7.4, 150 mM NaCl, 4 mM CaCl2, 0.05% P20, 0.2 mg/mL BSA; settings: both partners purified
[6] = target: T2, soluble mouse S-GPIHBP1 (acidic stretch …); test: SPR; 150 mM NaCl
[7] = target: T2, soluble mouse S-GPIHBP1 (acidic stretch …); test: SPR; 750 mM NaCl
[8] = target: T2, soluble mouse S-GPIHBP1 (acidic stretch …); test: SPR; 150 mM NaCl; remark: listed apart in the source
[9] = target: T2, soluble mouse S-GPIHBP1 (acidic stretch …); test: SPR; 750 mM NaCl; remark: listed apart in the source
[10] = target: T2, soluble mouse S-GPIHBP1 (acidic stretch …); test: SPR; LPL bound to heparin DP4, 150 mM NaCl
[11] = target: T2, soluble mouse S-GPIHBP1 (acidic stretch …); test: SPR; LPL bound to heparin DP4, 150 mM NaCl; remark: listed apart in the source

koff [1]	koff [2]	Kd [3]	Kd [4]	binding result [5]	koff [6]	koff [7]	Kd [8]	Kd [9]	koff [10]	Kd [11]	Binder
0.0125 s⁻¹	0.0143 s⁻¹	0.00093 µM	0.02 µM	binds							B1
					0.0167 s⁻¹	0.0495 s⁻¹	0.107 µM	0.183 µM	0.0211 s⁻¹	0.29 µM	B2

Source: PMC8884915, “Electrostatic sheathing of lipoprotein lipase is essential for its movement across capillary endothelial cells” (The Journal of Clinical Investigation, 2022)
